Source: publication PMC4211651
pKd: −log10 of the molar value.

Molecular target: native porcine cardiac thin filaments (F-actin plus regulatory proteins, troponin, and tropomyosin) (porcine) (UniProt P42639)
Experiment: co-sedimentation

“human cardiac myosin binding protein-C N-terminal domains C0C1 (domain or fragment)” showed a pKd of 5.66.
With “mouse cardiac myosin binding protein-C N-terminal domains C0C1 (domain or fragment)” the pKd was 5.66.
